Laboratory results published in the supplement of paper PMC5998384.

How the values were obtained:
HeLa Kyoto [1] = assay: thermal stability score vs G1/S (z-score of summed log2 fold changes over temperatures); higher = more thermally stable than in G1/S
HeLa Kyoto [2] = assay: melting temperature (median over replicates), in situ; higher = more thermally stable
HeLa Kyoto [3] = assay: solubility change mitosis vs G1/S (difference of NP-40 vs SDS log2 ratios) (log2 ratio difference); higher = more soluble in mitosis
HeLa Kyoto [4] = assay: solubility in G1/S (NP-40 vs SDS abundance) (log2 ratio); higher = more soluble; conditions: cell cycle stage: G1/S
[5] = cell cycle stage: early G1 (4.5 h after nocodazole release)
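Wherever melting temperature (median over replicates), in situ is given: HeLa Kyoto cells synchronized by double thymidine or nocodazole block, proteins quantified by TMT10plex mass spectrometry, three independent biological replicates.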
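Wherever solubility change mitosis vs G1/S (difference of NP-40 vs SDS log2 ratios) is given: synchronized HeLa Kyoto cells (double thymidine block for G1/S, nocodazole release for mitosis), protein amounts in NP-40 versus SDS lysates quantified by mass spectrometry, three biological replicates.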
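Wherever solubility in G1/S (NP-40 vs SDS abundance) is given: HeLa Kyoto cells arrested at G1/S by double thymidine block, proteins quantified by TMT10plex mass spectrometry in mild NP-40 versus SDS extracts, three biological replicates.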
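Wherever thermal stability score vs G1/S (z-score of summed log2 fold changes over temperatures) is given: synchronized HeLa Kyoto cells, proteins quantified by TMT10plex mass spectrometry, three biological replicates, mitosis taken 0.5 h after nocodazole release, G1/S directly after double thymidine block.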

Sequence | thermal stability score (HeLa Kyoto [1]; [5]) | thermal stability score (HeLa Kyoto [1]; cell cycle stage: mitosis) | melting temperature (HeLa Kyoto [2]; cell cycle stage: G1/S) | melting temperature (HeLa Kyoto [2]; cell cycle stage: mitosis) | solubility change mitosis (log2) (HeLa Kyoto [3]) | solubility in G1/S (log2) (HeLa Kyoto [4])
MESNKDEAERCISIALKAIQSNQPDRALRFLEKAQRLYPTPRVRALIESLNQKPQTAGDQPPPTDTTHATHRKAGGTDAPSANGEAGGESTKGYTAEQVAAVKRVKQCKDYYEILGVSRGASDEDLKKAYRRLALKFHPDKNHAPGATEAFKAIGTAYAVLSNPEKRKQYDQFGDDKSQAARHGHGHGDFHRGFEADISPEDLFNMFFGGGFPSSNVHVYSNGRMRYTYQQRQDRRDNQGDGGLGVFVQLMPILILILVSALSQLMVSSPPYSLSPRPSVGHIHRRVTDHLGVVYYVGDTFSEEYTGSSLKTVERNVEDDYIANLRNNCWKEKQQKEGLLYRARYFGDTDMYHRAQKMGTPSCSRLSEVQASLHG [DNAJB12] | 2.37 | 0.328 | 49.4 °C | 50.4 °C | -0.00489 | 0.104
MESSRGRPGPETDLLAVAEHQALVFGGGPGRTSSEPPAGLRVSGEEETENVGGANRHPRTSPKTSSCGVVHRPEREALENEPGPQGTLSGAGSRRGAPGAEHEPSLSSRHKNPAPPEGKPSSGRDCRRGGPGGGMDVEQQEEEDNDEEAAAGSRAGRSFSSRLQDSRSLDGLSEACGGAGSSGSAESGAGGGRRATISSPLELEGTVSRHGDLTHFVANNLQLKIRLSGAPPPPPSAPARPCPAPAPTPTPAIPPIDPEVLRDLERLSRELGGRVDRLLRGLGGAVQELTALSVGCIQTYRDAVDSLGEAVDMSIKGMYTLLARCEELERALQPVQGLARQVRDIRRTLEVLEALCK [C17ORF59] | -2.61 | -1.39 | 53.5 °C | 53.8 °C | -0.0139 | 0.166
METLESELTCPICLELFEDPLLLPCAHSLCFNCAHRILVSHCATNESVESITAFQCPTCRHVITLSQRGLDGLKRNVTLQNIIDRFQKASVSGPNSPSETRRERAFDANTMTSAEKVLCQFCDQDPAQDAVKTCVTCEVSYCDECLKATHPNKKPFTGHRLIEPIPDSHIRGLMCLEHEDEKVNMYCVTDDQLICALCKLVGRHRDHQVAALSERYDKLKQNLESNLTNLIKRNTELETLLAKLIQTCQHVEVNASRQEAKLTEECDLLIEIIQQRRQIIGTKIKEGKVMRLRKLAQQIANCKQCIERSASLISQAEHSLKENDHARFLQTAKNITERVSMATASSQVLIPEINLNDTFDTFALDFSREKKLLECLDYLTAPNPPTIREELCTASYDTITVHWTSDDEFSVVSYELQYTIFTGQANVVSLCNSADSWMIVPNIKQNHYTVHGLQSGTKYIFMVKAINQAGSRSSEPGKLKTNSQPFKLDPKSAHRKLKVSHDNLTVERDESSSKKSHTPERFTSQGSYGVAGNVFIDSGRHYWEVVISGSTWYAIGLAYKSAPKHEWIGKNSASWALCRCNNNWVVRHNSKEIPIEPAPHLRRVGILLDYDNGSIAFYDALNSIHLYTFDVAFAQPVCPTFTVWNKCLTIITGLPIPDHLDCTEQLP [MID1] | -0.257 | -0.0362 | 50.6 °C | 50.6 °C | -0.0991 | -0.197
METPSQRRATRSGAQASSTPLSPTRITRLQEKEDLQELNDRLAVYIDRVRSLETENAGLRLRITESEEVVSREVSGIKAAYEAELGDARKTLDSVAKERARLQLELSKVREEFKELKARNTKKEGDLIAAQARLKDLEALLNSKEAALSTALSEKRTLEGELHDLRGQVAKLEAALGEAKKQLQDEMLRRVDAENRLQTMKEELDFQKNIYSEELRETKRRHETRLVEIDNGKQREFESRLADALQELRAQHEDQVEQYKKELEKTYSAKLDNARQSAERNSNLVGAAHEELQQSRIRIDSLSAQLSQLQKQLAAKEAKLRDLEDSLARERDTSRRLLAEKEREMAEMRARMQQQLDEYQELLDIKLALDMEIHAYRKLLEGEEERLRLSPSPTSQRSRGRASSHSSQTQGGGSVTKKRKLESTESRSSFSQHARTSGRVAVEEVDEEGKFVRLRNKSNEDQSMGNWQIKRQNGDDPLLTYRFPPKFTLKAGQVVTIWAAGAGATHSPPTDLVWKAQNTWGCGNSLRTALINSTGEEVAMRKLVRSVTVVEDDEDEDGDDLLHHHHGSHCSSSGDPAEYNLRSRTVLCGTCGQPADKASASGSGAQVGGPISSGSSASSVTVTRSYRSVGGSGGGSFGDNLVTRSYLLGNSSPRTQSPQNCSIM [LMNA] | -9.6 | -5.85 | 54.8 °C | 52.9 °C | 1.64 | -1.05
